Data on 167 variants can be found in the RNAGym collection of RNA variant scans (doi:10.7554/elife.80360).

B1: CPEB3 Ribozyme (parent)
chain: GGGGGCCACAGCAGAAGCGUUCACGUCGCGGCCCCUGUCAGAUUCUGGUGAAUCUGCGAAUUCUGCUGU

Variants of B1 are the subject of this data set. The experiment in a line: self-cleavage, relative activity (ratio to wild type); higher = more cleavage; co-transcriptional.
Take A13U A51G: the self-cleavage amounted to 0.837.
The same measure for A13U A51C: 0.828; for A13U A51U: 0.858; for A13G G19U: 0.0922.
Take A13G G19A: the self-cleavage amounted to 0.155.
Consider A13U U46G, for which the self-cleavage came out at 0.905.
As to A13U U46C, the self-cleavage was 0.873.
The same measure for A13U U46A: 0.942.
The same measure for A13U G28A: 0.134; for A13U G28C: 0.125.
With A13G U69G the figure was 1.01; with A13G U69C, 1.04; with A13C U64G, 0.922.
Consider A13C U64A, for which the self-cleavage amounted to 0.948.
The same measure for G14A C45G: 0.638.
The same measure for G14A C45U: 0.778.
The same measure for G14A C45A: 0.612; for A13U U49C: 0.78.
Turning to A13U C34G, the self-cleavage was determined as 0.309.
With A13U C34A the figure was 0.704.
The same measure for A13G C45A: 0.889; for A13G C45U: 0.917.
With A13C G50U the figure was 0.909; with A13C G50C, 0.787.
Regarding A13C G56C, the self-cleavage came to 0.367.
A13C G56U: the self-cleavage worked out at 0.51.
For the variant A13C G56A, the self-cleavage stood at 0.625.
A13U G68A: the self-cleavage came to 0.903.
A13U G68C: the self-cleavage amounted to 0.841.
With A13U G68U the figure was 0.886; with A13U G37C, 0.186.
The same measure for A13U G37U: 0.196.
Turning to A13G G17A, the self-cleavage came to 0.0885.
A13G G17U: the self-cleavage is 0.214.
As for A13G A60U, the self-cleavage came out at 0.282.
With A13G A60C the figure was 0.268; with A13G A60G, 0.66; with A13C U26A, 0.615.
The same measure for A13C U26G: 0.113.
The same measure for A13C U26C: 0.692; for A13G U20G: 0.0546; for A13G G25C: 0.135.
A13G G25A: the self-cleavage was found to be 0.186.
As to A13G G25U, the self-cleavage turned out to be 0.118.
For the variant A13C U55C, the self-cleavage came to 0.439.
Take A13U C24A: the self-cleavage was determined as 0.301.
With A13U C24U the figure was 0.364; with G14A G28C, 0.146; with A13G A23C, 0.781.
With A13C U49C, the self-cleavage is 0.842.
A13C U49G: the self-cleavage is 0.933.
With A13C U49A the figure was 0.922.
The same measure for A13U U20G: 0.185; for A13U U20C: 0.145.
With A13C G68A, the self-cleavage was found to be 0.921.
On to A13C G68C, for which the self-cleavage is 0.917.
The same measure for G14A G30A: 0.235; for A13G C33G: 0.638.
As for A13C U20A, the self-cleavage amounted to 0.149.
Regarding A13C U20C, the self-cleavage stood at 0.128.
The same measure for A13U U44G: 0.575; for A13U U44C: 0.345; for A13C G58U: 0.933.
With A13C G58C the figure was 0.862; with A13C G58A, 0.754; with A13C U43G, 0.32.
With A13C U43A the figure was 0.514; with A13U G19C, 0.133.
Take A13U G19A: the self-cleavage was determined as 0.145.
With A13U G19U the figure was 0.15; with A13U C54U, 0.729; with A13U C54A, 0.29.
The same measure for A13U G47A: 0.893; for A13U G47U: 0.881.
Turning to G14A G41A, the self-cleavage came to 0.196.
With G14A A52C the figure was 0.688; with G14A A52U, 0.643; with A13G U26C, 0.78.
Turning to A13G U26G, the self-cleavage is 0.935.
The same measure for A13U A52G: 0.902.
As for A13U A52C, the self-cleavage turned out to be 0.8.
The same measure for A13U A52U: 0.776; for G14A G31A: 0.249.
As for G14A G31C, the self-cleavage came out at 0.183.
The same measure for A13U U64A: 0.945; for A13U U64G: 0.969; for A13U U64C: 0.853.
As to A13G A40U, the self-cleavage is 0.455.
For A13G A40G, the self-cleavage was determined as 0.831.
As for G14A A16C, the self-cleavage was found to be 0.136.
With G14A A16U the figure was 0.353.
With G14A A16G the figure was 0.463; with A13U A60U, 0.356.
As for A13U A60G, the self-cleavage turned out to be 0.398.
In the case of A13U U43A, the self-cleavage is 0.31.
The same measure for A13U U43C: 0.678.
Consider A13U G30A, for which the self-cleavage amounted to 0.487.
The same measure for A13U G30U: 0.228; for A13U G30C: 0.393.
Regarding A13U G48U, the self-cleavage was determined as 0.916.
With A13U G48C, the self-cleavage came out at 0.872.
A13G G31A: the self-cleavage was determined as 0.775.
With A13G G31U the figure was 0.555.
Consider A13G C35G, for which the self-cleavage came out at 0.446.
The same measure for A13U A23U: 0.963; for A13U A23G: 0.618; for A13G C34U: 1.02.
With A13G C34G, the self-cleavage came to 0.293.
With A13G C34A the figure was 0.797; with A13U C33G, 0.333; with A13U C33A, 0.759.
As for A13U G56C, the self-cleavage was 0.31.
The same measure for A13U G56A: 0.688.
The same measure for A13U G25A: 0.168; for A13C U69G: 0.96.
The same measure for A13G A52C: 0.827.
A13G A52G: the self-cleavage stood at 1.02.
For the variant A13U U36A, the self-cleavage was found to be 0.121.
The same measure for A13U U36G: 0.136.
Turning to A13U G65U, the self-cleavage turned out to be 0.419.
With A13U G65C the figure was 0.417.
As for A13U G65A, the self-cleavage stood at 0.513.
As to A13G C66G, the self-cleavage amounted to 0.489.
On to A13U G58A, for which the self-cleavage stood at 0.758.
With A13G G48A the figure was 0.968; with A13G G48U, 0.914.
For A13U U21G, the self-cleavage was found to be 0.173.
A13U U21C: the self-cleavage came to 0.691.
With A13U U21A the figure was 0.785.
The same measure for G14A G50C: 0.61; for G14A G50U: 0.743.
As to G14A G50A, the self-cleavage was found to be 0.778.
With A13G U53A the figure was 0.87; with A13G U53G, 0.737.
With A13G U53C the figure was 0.628; with A13U G31U, 0.402.
With A13U G31C the figure was 0.217; with A13G C24U, 0.712.
For the variant A13G C24A, the self-cleavage stood at 0.54.
A13U C66A: the self-cleavage is 0.323.
Regarding A13U C66U, the self-cleavage turned out to be 0.583.
With A13U G17U the figure was 0.163.
The same measure for A13U G17A: 0.102.
The same measure for A13U A40G: 0.607.
G14A A15C: the self-cleavage worked out at 0.305.
A13G G30C: the self-cleavage stood at 0.711.
As for A13G G30A, the self-cleavage was determined as 0.856.
With A13U U53A the figure was 0.514; with A13U U53G, 0.398; with A13U A59G, 0.784.
Consider A13U A59C, for which the self-cleavage is 0.33.
The same measure for A13U C27A: 0.207.
The same measure for A13U U62A: 0.438; for A13U C57U: 0.308; for A13U C57G: 0.226.
In the case of A13G U43C, the self-cleavage was determined as 0.785.
With A13G U43G the figure was 0.539; with A13G C54G, 0.772; with A13G C54A, 0.642.
With A13G C29G the figure was 0.126; with A13G C29A, 0.42; with G14A A59G, 0.704.
As to G14A A59U, the self-cleavage stood at 0.369.
With A13G G65U the figure was 0.561; with A13U U55G, 0.234.
With A13U U55A, the self-cleavage was 0.246.
Consider A13U C32G, for which the self-cleavage amounted to 0.229.
